Target: T1, EnrR (crystal) (Edwardsiella piscicida EIB202, UniProt A0AAQ3C0I8 1-90)
T1 sequence: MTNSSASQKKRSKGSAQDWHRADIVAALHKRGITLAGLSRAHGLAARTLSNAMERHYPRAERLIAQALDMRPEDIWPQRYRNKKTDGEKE
Assay: X-ray crystallography

B1: DNA1 (dsDNA)
DNA 1: CGAAATATCTATAGATATTTCG
DNA 2: CGAAATATCTATAGATATTTCG
Does B1 bind?
Result: binds
